The values that follow come from FireProtDB (doi:10.1021/bi050342n).

The conditions of the data set: Pseudomonas aeruginosa (strain ATCC 15692 / DSM 22644 / CIP 104116 / JCM 14847 / LMG 12228 / 1C / PRS 101 / PAO1); pH 7; 25 °C; GdnHCl; Fluorescence, CD; Tris-HCl 100 mM; reversible: Yes; whole UniProt chain shown.

B1: Azurin wild type, P00282 (protein)
chain: MLRKLAAVSLLSLLSAPLLAAECSVDIQGNDQMQFNTNAITVDKSCKQFTVNLSHPGNLPKNVMGHNWVLSTAADMQGVVTDGMASGLDKDYLKPDDSRVIAHTKLIGSGEKDSVTFDVSKLKEGEQYMFFCTFPGHSALMKGTLTLK
Take B1: the denaturant m value amounted to 4.06 kcal/mol/M and the unfolding free energy came to 12.9 kcal/mol.
